Source: the supplement of paper PMC11865577

Key:
Assay in all cases: pull-down binding Z-score (relative to library population); higher = stronger binding
Details in all cases: RNA library: Library-2
[1] = tested on: TO-3-N3 (biotin conjugate)
Outline: (§1)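 Heat-folded RNA library (1 μg, Cy5 or Cy3 end label, phosphate/NaCl/KCl buffer) was captured for 60 min at 25 °C on streptavidin beads displaying 100 pmol of biotin-conjugated small molecule, then washed three times. The bound fraction, eluted in hot SDS, was hybridised to a DNA barcode microarray at 55.5 °C for 20 h. Z-scores for binding were taken against the library mean and standard deviation after beads-only subtraction and trimmed averaging of replicate barcoded probes.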

[2] = tested on: TO-3-N3-2 (biotin conjugate)
Outline: as §1

TO-N3 (biotin conjugate) = tested on: TO-N3 (biotin conjugate)
Outline: as §1

[3] = tested on: TO-N3-2 (biotin conjugate)
Outline: as §1

Row | Sequence | pull-down binding Z-score [1] | pull-down binding Z-score [2] | pull-down binding Z-score (TO-N3 (biotin conjugate)) | pull-down binding Z-score [3]
1 | GCUGACACUACUGAUGCUGUCCGUGAUCCACAGACACUUGAGAUUCUUGACAUUACACCAUGUUCUUUUGGUGGUGUCAGU [SHAPE_invivo_SARS-CoV-2_Multi_58_ComplexLevel_1] | -0.0653 | -0.3 | 0.456 | 0.237
2 | CCUACUAAAAAGG | 0.907 | 0.2 | 0.766 | -0.0122
3 | GCACCAUUAUUAUCAGCUGGUAUUUUUGGUGC | -0.619 | -0.502 | -0.921 | -1.18
4 | GGCAUCUGCGGGCC [IAV_invivo_NP_5_Motif_21+IAV_invivo_NP_5_Motif_21] | -0.637 | -0.641 | -0.759 | -0.239
5 | ACAGACUUCAUUAAGAUGUGGUGCUUGCAUACGUAGACCAUUCUUAUGUUGUAAAUGCUGUUACGACCAUGUCAUAUCAACAUCACAUAAAUUAGUCUUGUCUGU | -0.753 | -0.127 | -0.512 | -0.489
6 | GUGUAUGCUGCUGACCCUGCUAUGCACGCUGCUUCUGGUAAUCUAUUACUAGAUAAACGCACUACGUGCUUUUCAGUAGCUGCAC | 0.39 | 0.434 | 0.772 | 0.698
7 | AACUGAAAGUAAACCUUCAGUU | -0.172 | -0.384 | -0.401 | -1.3
8 | GCCACGUAUAAACCAAAUACCUGGUGUAUACGUUGU | 0.576 | -0.377 | 0.17 | -0.78
9 | CCUUGCGAAAGGAGAGAAGGCUAAUGUGCUAAUUGGGCAAGG [IAV_invivo_PB2_1_Motif_34+IAV_invivo_PB2_1_Motif_34] | -0.245 | 0.584 | 0.291 | 0.837
10 | GUGGUUGACCUACACAGGUGCCAU | -0.678 | -0.562 | -0.612 | 0.102
11 | AAUAGAAGAAUUAUUCUAUU [SHAPE_invitro_SARS-CoV-2_Motif_349] | -0.546 | -0.687 | -0.867 | -1.81
12 | GGGUGGGUGGGUGGGUGGGUGGGUGGGUGGGU [G4_r(GGGU)8] | 9.08 | 10.2 | 7.37 | 5.15
13 | CCCCAGGGAUGCAAAUAAGGGG [IAV_invivo_PB1_2_Motif_14+IAV_invivo_PB1_2_Motif_14] | 0.0403 | 0.163 | -0.0747 | 0.241
14 | GUGCAGAAUGAAUUCUCGUAACUACAUAGCACAAGUAGAUGUAGUUAACUUUAAUCUCAC | -0.768 | -0.202 | -0.646 | -0.275
15 | GCUUGCAUACGUAGACCAUUCUUAUGUUGUAAAUGCUGUUACGACCAUGUCAUAUCAACAUCACAUAAAUUAGUCUUGUCUGUUAAUCCGUAUGUUUGCAAUGC [DMSMaPseq_invitro_SARS-CoV-2_Motif_294] | -0.654 | -0.304 | -0.546 | -0.437
16 | CUCCAAAAAGAG | -0.901 | -0.675 | -1.21 | -1.2
17 | CAGUACAAUUCUGUGAUGCCAUGCGAAAUGCUGGUAUUGUUGGUGUACUG | -0.432 | -0.441 | -0.499 | -0.171
18 | GUUUCUGCCUUUCCAACAAUUUGGCAGAGAC | -0.615 | -0.306 | -0.868 | -0.994
19 | CUCCAGGAGGGG [IAV_invivo_PB2_1_Motif_10+IAV_invivo_PB2_1_Motif_10] | -0.481 | -0.312 | -0.668 | -0.309
20 | UAUUACAGAUCUUUACCAGGAGUUUUCUGUGGUG | -0.624 | -0.388 | -0.72 | -0.779
21 | UGAGUACUGUAGGCACGGCACUUGUGAAAGAUCAGAAGCUGGUGUUUGUGUAUCUACUAGUGGUAGAUGGGUACUUA [DMSMaPseq_invitro_SARS-CoV-2_Multi_29_ComplexLevel_1] | -0.254 | -0.0976 | 0.0497 | 0.628
22 | CUGUUUGGAUGACAG | -0.461 | -0.753 | -0.871 | -1.01
23 | GGCACAAAUGCAACACUGCAUUACCAUGCGGUUGUGCC [3-way model-1_rpoH] | -1.03 | -0.624 | -1.42 | -1.27

Row | Sequence | pull-down binding Z-score [1] | pull-down binding Z-score [2] | pull-down binding Z-score (TO-N3 (biotin conjugate)) | pull-down binding Z-score [3]
24 | AAAUUACCAUUUCAUCUUUUAAAUGGGAUUU | 0.204 | -0.151 | -0.0633 | -1.21
25 | UGAAUUAGACUCAUUCA [DMSMaPseq_invitro_SARS-CoV-2_Motif_447] | -0.55 | -0.45 | -0.643 | -0.825
26 | UCAGUUGUAAACAUUCAAAAAGAAAUUGA | 0.0975 | 0.407 | 0.0554 | 0.216
27 | GAAUUUACACCUUUUGAUGUUGUUAGACAAUGCUCAGGUGUUACUUUC | 0.167 | -0.394 | 0.0292 | -0.632
28 | CAGGCAAUAACAGUUACACCGGAAGCCAAUAUGGAUCAAGAAUCCUUUGGUGGUGCAUCGUGUUGUCUG [SHAPE_invivo_SARS-CoV-2_Motif_250] | 0.944 | 0.619 | 1.2 | 0.779
29 | GACUACUAGCGUGCCUUUGUAAGCACAAGCUGAUGAGUACGAACUUAUGUACUCAUUCGUUUCGGAAGAGACAGGUACGUUAAUAGUU [SHAPE_invitro_SARS-CoV-2_Multi_71_ComplexLevel_1] | 0.389 | 0.392 | 0.649 | 0.672
30 | UGGCCGCAAAUUGCACAAUUUGCCCCCA [SHAPE_invitro_SARS-CoV-2_Motif_532] | -0.293 | -0.435 | -0.363 | -0.6
31 | UUACACCACUGGGCAUUGAUUUAGAUGAGUGGAGUAUGGCUACAUACUACUUAUUUGAUGAGUCUGGUGAGUUUAA | -0.972 | -0.516 | -1.09 | -1.04
32 | CCAUUUGCUAUGCAAAUGG | -0.562 | -0.677 | -1.05 | -1.56
33 | UAGCUUGUUUUGUGCUUGCUG [SHAPE_invivo_SARS-CoV-2_Motif_507] | 0.134 | -0.546 | -0.0778 | -0.699
34 | UGGGGUUGGGGUUGGGGUUGGGGUUGGGGUUGGGGUUGGGGUUGGGGU [G4_r(UGGGGU)8] | 7.69 | 8.63 | 6.59 | 4.93
35 | AACUUCUUAAGAGUGCUUAUGAAAAUUUUAAUCAGCACGAAGUU | 0.425 | 0.972 | -0.246 | -0.771
36 | ACUAAAAAUGU [SHAPE_invitro_SARS-CoV-2_Motif_381] | 0.184 | -0.343 | -0.167 | -0.642
37 | GCGCUGCCAGAAACUGGCUAGCGC [bulge-U] | 0.183 | -0.328 | -0.0999 | -0.75
38 | ACCCUCAAAAAGAGAUGGCAACUAGCACUCUCCAAGGGU | 0.217 | 0.0435 | 0.0275 | -0.427
39 | CUAGUUGUGAUGCAAUCAUGACUAG | -0.351 | -0.444 | -0.883 | -1.39
40 | UCUUUAUUUGACAUGAGUAAAUUUCCCCUUAAAUUAAGGGGUACUGCUGUUAUGUCUUUAAAAGA [SHAPE_invitro_SARS-CoV-2_Motif_387] | -0.896 | 0.0957 | -0.894 | -0.575
41 | UCACUCACUGAGUGA [IAV_invivo_NP_5_Motif_1+IAV_invivo_NP_5_Motif_1] | -0.0667 | -0.357 | -0.616 | -1.45
42 | AUGGCUGAUCAAGCUAU [DMSMaPseq_invitro_SARS-CoV-2_Motif_216] | -0.238 | -0.583 | -0.208 | -0.747
43 | ACCUAAAUAGAGGU | -0.82 | -0.686 | -1.22 | -1.63
44 | GGAAUAAGUACGAUACUUACCUG [U1snRNP5ss-5] | -0.215 | 0.089 | 0.464 | 1.56
45 | AAGAAAGUUGAUGGUGUUGUCCAACAAUUACCUGAAACUUACUU [DMSMaPseq_invitro_SARS-CoV-2_Motif_358] | -1.04 | -0.423 | -1.34 | -1.44
46 | AGUAUGGCUACAUACU [DMSMaPseq_invitro_SARS-CoV-2_Motif_53] | -0.637 | -0.367 | -1.06 | -1.19

Row | Sequence | pull-down binding Z-score [1] | pull-down binding Z-score [2] | pull-down binding Z-score (TO-N3 (biotin conjugate)) | pull-down binding Z-score [3]
47 | AAGGGGGCCGUGGGGUGGGAGCUGGGGAA [G4_2A2_BCL2] | 8.07 | 9.67 | 6.6 | 4.88
48 | UAGCUGGUUUUGCUA [SHAPE_invivo_SARS-CoV-2_Motif_257] | 0.71 | 0.105 | 0.281 | -0.612
49 | UGGUACUGAAGAUGAUUACCA [SHAPE_invitro_SARS-CoV-2_Motif_57] | -0.272 | 0.306 | -0.278 | 0.00913
50 | CCUAUCAAUGG [IAV_invivo_PB2_1_Motif_26+IAV_invivo_PB2_1_Motif_26] | 0.191 | -0.212 | 0.11 | -0.376
51 | UCCUCAGUUUUACAUUCAACUCAGGA | -0.555 | -0.225 | -0.757 | -0.699
52 | UGCUUUGGUGUAAAGAUGGCCAUGUAGAAACAUUUUACCCAAAAUUACAAUCUAGUCAAGCGUGGCAACCGGGUGUUGCUAUGCCUAAUCUUUACAAAAUGCA | -0.104 | -0.00692 | 0.0858 | 0.252
53 | UGCAUUUCUUACCUAGAGUUUUUAGUGCA [DMSMaPseq_invitro_SARS-CoV-2_Motif_163] | -0.82 | -0.416 | -1.09 | -1.24
54 | UGAACCACAAAUCA [SHAPE_invitro_SARS-CoV-2_Motif_451] | -0.745 | -0.565 | -1.04 | -0.906
55 | CCCAAUGUUGUUAAACCACACGAAAAGGG [IAV_invivo_PA_3_Motif_15+IAV_invivo_PA_3_Motif_15] | 0.621 | 0.104 | 0.504 | -0.323
56 | CACCAAGACUACUUACUGGUG [IAV_invivo_PB1_2_Motif_22+IAV_invivo_PB1_2_Motif_22] | -0.338 | -0.501 | -0.706 | -1.37
57 | CCCCACUACAAUUGGGG [IAV_invivo_HA_4_Motif_4+IAV_invivo_HA_4_Motif_4] | 0.245 | -0.517 | -0.0989 | -1.27
58 | UGGUAUUCUUGCUA | -0.297 | -0.339 | -0.551 | -0.632
59 | UUACAGAAGAGGUUGGCCACACAGAUCUAAUGGCUGCUUAUGUAG | -0.523 | -0.244 | -0.376 | -0.138
60 | GCUAUCUAACCUUAACUUGCCUGGUUGUGAUGGU [SHAPE_invivo_SARS-CoV-2_Motif_361] | 0.68 | 0.311 | 0.716 | 0.466
61 | UCUCGUUCACUGGGGA [IAV_invivo_PA_3_Motif_5+IAV_invivo_PA_3_Motif_5] | 0.366 | 0.0349 | 0.198 | -0.216
62 | UGUUGCUUAUGAAAGUUUACGCCCUGACACACGUUAUGUGCUCAUGGAUGGCUCUAUUAUUCAAUUUCCUAACACCUACCUUGAAGGUUCUGUUAGAGUGGUAACA [SHAPE_invitro_SARS-CoV-2_Multi_27_ComplexLevel_1] | -0.56 | 0.0467 | -0.452 | 0.0671
63 | AAGCUGAUGAGUACGAACUUAUGUACUCAUUCGUUU | -0.634 | -0.284 | -0.877 | -0.895
64 | AUACCUGCACGUGCUCGUGUAGAGUGU | 0.0809 | -0.0175 | -0.0676 | -0.468
65 | UGGAAUUGCAAUGUCGAUAGAUAUCCUGCUAAUUCCA | -0.0259 | 0.0197 | 0.0215 | -0.0708
66 | GCAGUAAGUCUGAUACUUACCUG [U1snRNP5ss-9] | 0.85 | 0.129 | 0.947 | 0.892
67 | CCUACUGAUGG [IAV_invivo_PA_3_Motif_12+IAV_invivo_PA_3_Motif_12] | 0.0894 | -0.207 | -0.319 | -0.632
68 | CUAUAGUAGCUGGUGGUAUUGUAGCUAUCGUAG [SHAPE_invitro_SARS-CoV-2_Motif_182] | 0.653 | 0.54 | 0.874 | 1.04
